This is an account of results in article PMC7952604, “Structural insights into phosphatidylethanolamine formation in bacterial membrane biogenesis” (Scientific Reports, 2021).

Square brackets hold non-standard residues; d marks the D form. Ends that are not written are not given here. * marks the point of attachment. Pyruvoyl = CC(=O)C(=O)*

B4: E. coli phosphatidylserine decarboxylase (PSD) β-subunit, from PSD_(1–287) (domain or fragment, Escherichia coli, UniProt P0A8K1 1-253, looked up)
chain: MLNSFKLSLQYILPKLWLTRLAGWGASKRAGWLTKLVIDLFVKYYKVDMKEAQKPDTASYRTFNEFFVRPLRDEVRPIDTDPNVLVMPADGVISQLGKIEEDKILQAKGHNYSLEALLAGNYLMADLFRNGTFVTTYLSPRDYHRVHMPCNGILREMIYVPGDLFSVNHLTAQNVPNLFARNERVICLFDTEFGPMAQILVGATIVGSIETVWAGTITPPREGIIKRWTWPAGENDGSVALLKGQEMGRFKLG
notes: Made as one proenzyme chain (residues 1-287 with a C-terminal His6 tag) that cuts itself; the β-chain is the N-terminal product; also called β-chain; beta chain; source: E. coli BL21(DE3), DDM-solubilised, purified (HisTrap, SEC) as auto-cleaved PSD_(1–287)

The target of data set [1] is T1, PSD1–287 (Escherichia coli, UniProt P0A8K1).
T1 construct: gene psd
In words: X-ray structure ([…] Å); NaCNBH3 reduction, MALDI-TOF. It counts as binding. Particulars: 1 mM lipid, 50 mM NaCNBH3, 37 °C, 14 h, pH 7.5; covalent; reduced Schiff base to Pvl-254.

In data set [2] the target is T2, PSD1–322 (Escherichia coli, UniProt P0A8K1, H144A).
T2 construct: gene psd; full length (1-322), C-terminal His6 tag, auto-cleaved 253/254 with Ser254 turned to pyruvoyl, expressed in E. coli BL21(DE3), solubilised in DDM
T2 sequence (P0A8K1 254-322): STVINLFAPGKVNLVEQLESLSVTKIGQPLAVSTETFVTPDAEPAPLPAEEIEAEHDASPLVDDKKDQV
T2 sequence (P0A8K1 1-253 H144A): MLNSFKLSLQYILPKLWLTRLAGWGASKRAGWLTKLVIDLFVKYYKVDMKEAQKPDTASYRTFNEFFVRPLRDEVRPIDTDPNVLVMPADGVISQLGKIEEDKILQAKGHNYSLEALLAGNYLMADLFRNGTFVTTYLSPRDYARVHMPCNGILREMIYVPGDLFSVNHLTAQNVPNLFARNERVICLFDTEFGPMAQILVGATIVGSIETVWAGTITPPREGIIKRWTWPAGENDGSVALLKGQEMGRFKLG
In words: Schiff base reduction with NaCNBH3, MALDI-TOF. Particulars: 1 mM lipid, 50 mM NaCNBH3, 37 °C, 15 h; covalent; active site Pvl-254. It counts as binding.

The target of data set [3] is T3, PSD1–322 (Escherichia coli, UniProt P0A8K1, H144N).
T3 construct: gene psd; full length (1-322), C-terminal His6 tag, auto-cleaved 253/254 with Ser254 turned to pyruvoyl, expressed in E. coli BL21(DE3), solubilised in DDM
T3 sequence (P0A8K1 1-253 H144N): as the sequence (P0A8K1 1-253 H144A) above, with A144N counted along it
T3 sequence (P0A8K1 254-322): as the sequence (P0A8K1 254-322) above
In words: Schiff base reduction with NaCNBH3, MALDI-TOF. The class given is binding. Particulars: 1 mM lipid, 50 mM NaCNBH3, 37 °C, 15 h; covalent; active site Pvl-254.

Data set [4] deals with T1, PSD1–287. In words: Schiff base reduction with NaCNBH3, MALDI-TOF. It counts as binding. Particulars: 1 mM lipid, 50 mM NaCNBH3, 37 °C, 14 h, pH 7.5, covalent, decarboxylated.
The target in data set [5] is B4. In words: crystal structure; apo PSD_(1–287) in DDM; sitting drop vapor diffusion at 20 °C; two crystal forms, Apo-PSD1 (1.90 Å) and Apo-PSD2 (2.63 Å). Particulars: both partners purified.
Data set [6] has as its target B4. In words: crystal structure; PE-conjugated PSD_(1–287) in DDM; sitting drop vapor diffusion at 20 °C; 8PE-PSD (2.12 Å) and 10PE-PSD (2.70 Å). Particulars: both partners purified.
Data set [7] deals with the molecule itself. In words: crystal structure; apo PSD_(1–287) in DDM; sitting drop vapor diffusion at 20 °C; two crystal forms, Apo-PSD1 (1.90 Å) and Apo-PSD2 (2.63 Å).
Data set [8] deals with the molecule itself. In words: crystal structure; PE-conjugated PSD_(1–287) in DDM; sitting drop vapor diffusion at 20 °C; 8PE-PSD (2.12 Å) and 10PE-PSD (2.70 Å).

Turning to `CCCCCCCC(=O)OC[C@H](COP(=O)(O)OCCN)OC(=O)CCCCCCC` [8PE, 8:0/8:0 PE], the “% conjugation” value in data set [1] is given as 98%. The “Schiff base reduction with NaCNBH3, MALDI-TOF” value was “these proteins were able to form an adduct with 8PE, albeit at a reduced efficiency” in data set [2] and “these proteins were able to form an adduct with 8PE, albeit at a reduced efficiency” in data set [3]. On to `CCCCCCCCCC(=O)OC[C@H](COP(=O)(O)OC[C@H](N)C(=O)O)OC(=O)CCCCCCCCC` [10PS, 10:0/10:0 PS], for which the “% conjugation” value in data set [4] (trapped as 10PE adduct of Pvl-254) came to 97%. With `CCCCCCCCCCCCCC(=O)OC[C@H](COP(=O)(O)OC[C@H](N)C(=O)O)OC(=O)CCCCCCCCCCCCC` [14PS, 14:0/14:0 PS], the “% conjugation” value in data set [4] (trapped as 14PE adduct of Pvl-254) worked out at 94%.

B1: E. coli phosphatidylserine decarboxylase (PSD) α-subunit, from PSD_(1–287), apo (domain or fragment, Escherichia coli, UniProt P0A8K1 254-287, looked up)
chain: [Pyruvoyl]TVINLFAPGKVNLVEQLESLSVTKIGQPLAVST
notes: No removal of the His6 tag is described; also called α-chain; alpha chain; source: E. coli BL21(DE3), DDM-solubilised, purified (HisTrap, SEC) as auto-cleaved PSD_(1–287)
On to B1, for which the binding result in data set [5] is listed as “binds”.

B2: E. coli PSD α-subunit, from PSD_(1–287), conjugated with 8:0/8:0 PE (domain or fragment, Escherichia coli, UniProt P0A8K1 254-287, looked up)
chain: [Pyruvoyl]TVINLFAPGKVNLVEQLESLSVTKIGQPLAVST
modifications: not fully specified (residue 1); also: 8:0/8:0 PE linked to Pvl-254 by reduced Schiff base
notes: α-chain of E. coli phosphatidylserine decarboxylase, residues 254-287 of the construct PSD_(1–287); also called 8PE-conjugated α-chain; source: E. coli BL21(DE3), purified PSD_(1–287), conjugated with 8PE by NaCNBH3-dependent reduction of the Schiff base
Take B2: the binding result in data set [6] is recorded as “binds”.

B3: E. coli PSD α-subunit, from PSD_(1–287), conjugated with 10:0/10:0 PE (domain or fragment, Escherichia coli, UniProt P0A8K1 254-287, looked up)
chain: [Pyruvoyl]TVINLFAPGKVNLVEQLESLSVTKIGQPLAVST
modifications: not fully specified (residue 1); also: 10:0/10:0 PE linked to Pvl-254 by reduced Schiff base
notes: α-chain of E. coli phosphatidylserine decarboxylase, residues 254-287 of the construct PSD_(1–287); also called 10PE-conjugated α-chain
For the molecule B3, the binding result in data set [6] is “binds”.

For the molecule B4, the binding result in data set [7] is given as “binds”.

B5: 8PE-PSD: αβ-heterodimer of E. coli PSD_(1–287) with 8:0/8:0 PE linked to Pvl-254 (complex, Escherichia coli)
chain 1: MLNSFKLSLQYILPKLWLTRLAGWGASKRAGWLTKLVIDLFVKYYKVDMKEAQKPDTASYRTFNEFFVRPLRDEVRPIDTDPNVLVMPADGVISQLGKIEEDKILQAKGHNYSLEALLAGNYLMADLFRNGTFVTTYLSPRDYHRVHMPCNGILREMIYVPGDLFSVNHLTAQNVPNLFARNERVICLFDTEFGPMAQILVGATIVGSIETVWAGTITPPREGIIKRWTWPAGENDGSVALLKGQEMGRFKLG
chain 2: STVINLFAPGKVNLVEQLESLSVTKIGQPLAVST
modifications: 8:0/8:0 PE covalently linked to the pyruvoyl residue Pvl-254 (reduced Schiff base)
notes: β-chain of E. coli phosphatidylserine decarboxylase, residues 1-253; α-chain of E. coli phosphatidylserine decarboxylase, residues 254-287; source: E. coli BL21(DE3), purified PSD_(1–287), conjugated with 8PE by NaCNBH3-dependent reduction of the Schiff base
Consider B5, for which the “stoichiometry N” value in data set [8] was 2 αβ-heterodimers.

B6: E. coli PSD_(1–287) αβ-heterodimer, apo (complex, Escherichia coli)
chain 1: MLNSFKLSLQYILPKLWLTRLAGWGASKRAGWLTKLVIDLFVKYYKVDMKEAQKPDTASYRTFNEFFVRPLRDEVRPIDTDPNVLVMPADGVISQLGKIEEDKILQAKGHNYSLEALLAGNYLMADLFRNGTFVTTYLSPRDYHRVHMPCNGILREMIYVPGDLFSVNHLTAQNVPNLFARNERVICLFDTEFGPMAQILVGATIVGSIETVWAGTITPPREGIIKRWTWPAGENDGSVALLKGQEMGRFKLG
chain 2: STVINLFAPGKVNLVEQLESLSVTKIGQPLAVST
modifications: pyruvoyl residue (Pvl-254) at the N-terminus, formed from Ser-254 on auto-cleavage
notes: β-chain of E. coli phosphatidylserine decarboxylase, residues 1-253; α-chain of E. coli phosphatidylserine decarboxylase, residues 254-287; The unit that pairs with itself into the (αβ)2 heterotetramer; also called Apo-PSD1; Apo-PSD2; source: E. coli BL21(DE3), DDM-solubilised, purified (HisTrap, SEC)
Take B6: the “stoichiometry N” value in data set [7] was 2 αβ-heterodimers.

B7: 10PE-PSD: αβ-heterodimer of E. coli PSD_(1–287) with 10:0/10:0 PE linked to Pvl-254 (complex, Escherichia coli)
chain 1: MLNSFKLSLQYILPKLWLTRLAGWGASKRAGWLTKLVIDLFVKYYKVDMKEAQKPDTASYRTFNEFFVRPLRDEVRPIDTDPNVLVMPADGVISQLGKIEEDKILQAKGHNYSLEALLAGNYLMADLFRNGTFVTTYLSPRDYHRVHMPCNGILREMIYVPGDLFSVNHLTAQNVPNLFARNERVICLFDTEFGPMAQILVGATIVGSIETVWAGTITPPREGIIKRWTWPAGENDGSVALLKGQEMGRFKLG
chain 2: STVINLFAPGKVNLVEQLESLSVTKIGQPLAVST
modifications: 10:0/10:0 PE covalently linked to the pyruvoyl residue Pvl-254 (reduced Schiff base)
notes: β-chain of E. coli phosphatidylserine decarboxylase, residues 1-253; α-chain of E. coli phosphatidylserine decarboxylase, residues 254-287
Consider B7, for which the “stoichiometry N” value in data set [8] is 2 αβ-heterodimers.
